# Data reported in IntAct's records for PubMed 15377662.
# B1: Ras-related protein Rab-5A (Homo sapiens), P20339 (parent)
# chain: MASRGATRPNGPNTGNKICQFKLVLLGESAVGKSSLVLRFVKGQFHEFQESTIGAAFLTQTVCLDDTTVKFEIWDTAGQERYHSLAPMYYRGAQAAIVVYDITNEESFARAKNWVKELQRQASPNIVIALSGNKADLANKRAVDFQEAQSYADDNSLLFMETSAKTSMNVNEIFMAIAKKLPKNEPQNPGANSARGRGVDLTEPTQPTRNQCCSN
# Variants of: B1
# Settings: with p85a_bovin PIK3R1, P23727
# Chain of p85a_bovin PIK3R1, P23727 (P23727 whole entry): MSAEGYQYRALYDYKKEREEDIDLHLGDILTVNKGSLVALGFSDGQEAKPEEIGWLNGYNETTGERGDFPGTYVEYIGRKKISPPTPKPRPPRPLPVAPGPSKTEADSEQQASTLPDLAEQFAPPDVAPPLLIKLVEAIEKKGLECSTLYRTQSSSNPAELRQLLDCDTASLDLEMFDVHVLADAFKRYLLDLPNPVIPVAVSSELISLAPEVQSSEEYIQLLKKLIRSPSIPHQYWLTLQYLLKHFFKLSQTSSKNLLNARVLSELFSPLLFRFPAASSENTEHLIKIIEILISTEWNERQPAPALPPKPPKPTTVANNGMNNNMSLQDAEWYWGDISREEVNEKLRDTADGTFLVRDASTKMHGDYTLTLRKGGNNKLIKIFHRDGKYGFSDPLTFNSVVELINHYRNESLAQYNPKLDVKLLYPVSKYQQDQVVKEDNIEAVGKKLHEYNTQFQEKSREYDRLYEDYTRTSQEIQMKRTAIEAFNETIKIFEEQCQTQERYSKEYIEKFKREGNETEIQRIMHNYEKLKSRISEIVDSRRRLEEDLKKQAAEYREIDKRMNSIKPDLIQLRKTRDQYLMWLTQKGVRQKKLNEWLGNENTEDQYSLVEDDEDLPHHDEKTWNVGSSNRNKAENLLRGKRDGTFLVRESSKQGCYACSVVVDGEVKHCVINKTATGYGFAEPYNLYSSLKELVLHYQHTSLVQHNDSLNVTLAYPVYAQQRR
row,Variant,effect of a mutation on the interaction
1,S34N,disrupting interaction

# Variants of: B1
# Settings: with p85a_bovin PIK3R1, P23727
# Remark: another data set of the same source
row,Variant,effect of a mutation on the interaction
1,Q79L,decreasing interaction
